{"source": "paper PMC4239663", "about": "“Structural basis for extracellular cis and trans RPTPσ signal competition in synaptogenesis” (Nature Communications, 2014)", "binders": {"B1": {"name": "RPTPσ Ig1–3 (species not stated; Supplementary Figs 5a and 8i) (domain or fragment)", "chain": "EEPPRFIKEPKDQIGVSGGVASFVCQATGDPKPRVTWNKKGKKVNSQRFETIEFDESAGAVLRIQPLRTPRDENVYECVAQNSVGEITVHAKLTVLREDQLPSGFPNIDMGPQLKVVERTRTATMLCAASGNPDPEITWFKDFLPVDPSASNGRIKQLRSGALQIESSEETDQGKYECVATNSAGVRYSSPANLYVRVRRVAPRFSILPMSHEIMPGGNVNITCVAVGSPMPYVKWMQGAEDLTPEDDMPVGRNVLELTDVKDSANYTCVAMSSLGVIEAVAQITVKSLPKA"}, "B2": {"name": "chicken RPTPσ Ig1–2 (as found in the 2.5 Å complex crystals) (domain or fragment)", "chain": "ESPPVFIKKPVDQIGVSGGVASFVCQATGDPKPRVTWNKKGKKVNSQRFETIEFDESAGAVLRIQPLRTPRDENIYECVAQNPHGEVTVHAKLTVLREDQLPPGFPNIDMGPQLKVVERTRTATMLCAASGNPDPEITWFKDFLPVDPSTSNGRIKQLRSGGLQIESSEETDQGKYECVASNSAGVRYSSPANLYVR", "notes": "chicken RPTPσ; the crystallization protein was Ig1–3 (amino acids 29–316 of NM_205407.1); the cleavage site in the Ig2–Ig3 linker is not determined; also called cRPTPσ Ig1-2; source: HEK-293S GnTI− cells as Ig1–3, purified; Ig3 absent from the crystals, proteolytic cleavage the most likely reason"}, "B3": {"name": "human RPTPδ sEcto (domain or fragment)", "chain": "ETPPRFTRTPVDQTGVSGGVASFICQATGDPRPKIVWNKKGKKVSNQRFEVIEFDDGSGSVLRIQPLRTPRDEAIYECVASNNVGEISVSTRLTVLREDQIPRGFPTIDMGPQLKVVERTRTATMLCAASGNPDPEITWFKDFLPVDTSNNNGRIKQLRSESIGGTPIRGALQIEQSEESDQGKYECVATNSAGTRYSAPANLYVRELREVRRVPPRFSIPPTNHEIMPGGSVNITCVAVGSPMPYVKWMLGAEDLTPEDDMPIGRNVLELNDVRQSANYTCVAMSTLGVIEAIAQITVKALPKPPGTPVVTESTATSITLTWDSGNPEPVSYYIIQHKPKNSEELYKEIDGVATTRYSVAGLSPYSDYEFRVVAVNNIGRGPPSEPVLTQTSEQAPSSAPRDVQARMLSSTTILVQWKEPEEPNGQIQGYRVYYTMDPTQHVNNWMKHNVADSQITTIGNLVPQKTYSVKVLAFTSIGDGPLSSDIQVITQTGVPGQPLNFKAEPESETSILLSWTPPRSDTIANYELVYKDGEHGEEQRITIEPGTSYRLQGLKPNSLYYFRLAARSPQGLGASTAEISARTMQSKPSAPPQDISCTSPSSTSILVSWQPPPVEKQNGIITEYSIKYTAVDGEDDKPHEILGIPSDTTKYLLEQLEKWTEYRITVTAHTDVGPGPESLSVLIRTNEDVPSGPPRKVEVEAVNSTSVKVSWRSPVPNKQHGQIRGYQVHYVRMENGEPKGQPMLKDVMLADAQWEFDDTTEHDMIISGLQPETSYSLTVTAYTTKGDGARSKPKLVSTTGAVPGKPRLVINH"}, "B4": {"name": "human RPTPσ Ig1-FN3 (domain or fragment)", "chain": "EEPPRFIKEPKDQIGVSGGVASFVCQATGDPKPRVTWNKKGKKVNSQRFETIEFDESAGAVLRIQPLRTPRDENVYECVAQNSVGEITVHAKLTVLREDQLPSGFPNIDMGPQLKVVERTRTATMLCAASGNPDPEITWFKDFLPVDPSASNGRIKQLRSGALQIESSEETDQGKYECVATNSAGVRYSSPANLYVRVRRVAPRFSILPMSHEIMPGGNVNITCVAVGSPMPYVKWMQGAEDLTPEDDMPVGRNVLELTDVKDSANYTCVAMSSLGVIEAVAQITVKSLPKAPGTPMVTENTATSITITWDSGNPDPVSYYVIEYKSKSQDGPYQIKEDITTTRYSIGGLSPNSEYEIWVSAVNSIGQGPPSESVVTRTGEQAPASAPRNVQARMLSATTMIVQWEEPVEPNGLIRGYRVYYTMEPEHPVGNWQKHNVDDSLLTTVGSLLEDETYTVRVLAFTSVGDGPLSDPIQVKTQQGVPGQPMNLRAEARSETSITLSWSPPRQESIIKYELLFREGDHGREVGRTFDPTTSYVVEDLKPNTEYAFRLAARSPQGLGAFTPVVRQRTL"}, "B5": {"name": "chicken TrkC LRRIg1 (analyte of Fig. 3c) (domain or fragment)", "chain": "CPANCLCSKTDINCKKPDDGNLFPLLEGQDSGSSNGNTSINITDISRNITSIHIENWKNLQTLNAVDMELYTGLQRLTIRNSGLRNIQPRAFAKNPHLRYIDLSGNRLTTLSWQLFQTLRLFDLRLERNPFQCSCDIRWIQLWQEKGEANLQSQQLHCMNLDTAVILLRNMNITQCDLPEISVSHVNLTVREGENAVITCQGSGSPLPDVDWTVADLHSINTHQTNLQWTNVHAIQLTLVNVTSEDNGFLLTCIAENVVGMSQASVLLTVY"}, "B6": {"name": "RPTPσ Ig1–2 (species not stated; Supplementary Fig. 5a) (domain or fragment)", "chain": "EEPPRFIKEPKDQIGVSGGVASFVCQATGDPKPRVTWNKKGKKVNSQRFETIEFDESAGAVLRIQPLRTPRDENVYECVAQNSVGEITVHAKLTVLREDQLPSGFPNIDMGPQLKVVERTRTATMLCAASGNPDPEITWFKDFLPVDPSASNGRIKQLRSGALQIESSEETDQGKYECVATNSAGVRYSSPANLYVRV"}}, "key": {"[1]": {"biological_target": "T1, mouse TrkC LRRIg1 (soluble) (mouse, UniProt Q6VNS1 32-302)", "T1 chain": "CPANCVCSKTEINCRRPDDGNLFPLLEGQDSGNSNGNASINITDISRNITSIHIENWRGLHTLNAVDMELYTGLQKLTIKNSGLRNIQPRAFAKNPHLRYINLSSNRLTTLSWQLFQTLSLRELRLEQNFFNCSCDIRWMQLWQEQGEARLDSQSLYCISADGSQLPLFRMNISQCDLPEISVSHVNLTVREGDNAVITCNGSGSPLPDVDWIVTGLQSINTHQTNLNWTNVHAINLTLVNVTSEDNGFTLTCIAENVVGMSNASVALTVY", "experiment": "SPR"}, "[2]": {"biological_target": "T1, mouse TrkC LRRIg1 (soluble)", "experiment": "SPR"}, "[3]": {"biological_target": "T2, chicken TrkC LRRIg1cryst (crystallization protein) (chicken, UniProt Q91044 32-302, lack residues 63–77 | N163Q | N232Q | N259Q | N267Q | N294Q)", "T2 construct": "chicken TrkC LRRIg1, amino acids 32–302 of NCBI NM_205169.1, lacking residues 63–77; extra vector residues ETG (N-terminal) and GT (C-terminal) seen in the model; The methods name only the pHL-Avitag3 vector for this construct; also called cTrkC LRRIg1_(cryst)", "T2 sequence (looked up)": "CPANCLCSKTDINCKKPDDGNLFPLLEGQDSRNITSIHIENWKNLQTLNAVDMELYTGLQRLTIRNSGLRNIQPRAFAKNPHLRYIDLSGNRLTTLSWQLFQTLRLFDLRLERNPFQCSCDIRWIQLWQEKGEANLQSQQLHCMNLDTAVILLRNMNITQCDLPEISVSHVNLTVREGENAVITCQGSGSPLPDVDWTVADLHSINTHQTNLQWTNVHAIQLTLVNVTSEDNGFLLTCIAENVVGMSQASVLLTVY", "experiment": "crystal structure; 2.5 Å, space group P2; 10% PEG 20k, 20% PEG MME 550, 0.1 M bicine/Tris pH 8.5, 0.03 M sodium nitrate, disodium hydrogen phosphate and ammonium sulphate; 20.5 °C", "conditions": "both partners purified"}, "[4]": {"biological_target": "T3, mouse TrkC LRRIg1, C-terminal Avitag, immobilized (mouse, UniProt Q6VNS1 32-302, biotin on the Avitag (enzymatic))", "T3 construct": "mouse TrkC, leucine-rich repeat domain and first Ig domain, amino acids 32–302 of NCBI BC139764.1; not shown: Avitag (BirA recognition site), C-terminal, kept", "experiment": "SPR; equilibrium; biotinylated mouse TrkC LRRIg1 (wild type or D240A+D242A) immobilized on streptavidin-coated CM5 chips, human RPTP proteins as analytes; 10 mM HEPES pH 7.5, 150 mM NaCl, 0.01% Tween 20, 25 °C; in Fig. 6a also with increasing HS or heparin-dp10", "conditions": "both partners purified"}, "[5]": {"biological_target": "T4, mouse TrkC LRRIg2 (Mus musculus)", "T4 chain": "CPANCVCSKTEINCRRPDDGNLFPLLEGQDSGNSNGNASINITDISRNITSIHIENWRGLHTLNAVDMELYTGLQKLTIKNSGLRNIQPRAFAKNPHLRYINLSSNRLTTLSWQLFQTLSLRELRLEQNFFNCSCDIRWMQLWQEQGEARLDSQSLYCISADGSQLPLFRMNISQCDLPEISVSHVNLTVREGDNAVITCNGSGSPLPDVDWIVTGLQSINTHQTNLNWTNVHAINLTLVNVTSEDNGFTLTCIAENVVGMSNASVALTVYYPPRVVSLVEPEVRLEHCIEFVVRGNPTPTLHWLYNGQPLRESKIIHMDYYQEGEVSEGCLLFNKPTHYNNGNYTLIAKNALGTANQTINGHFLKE", "experiment": "SPR"}, "[6]": {"biological_target": "T5, mouse TrkC LRRIg1, C-terminal Avitag, immobilized (mouse, UniProt Q6VNS1 32-302, biotin on the Avitag (enzymatic))", "T5 chain": "T1 chain", "experiment": "SPR"}, "[7]": {"biological_target": "T1, mouse TrkC LRRIg1 (soluble)", "experiment": "SEC-MALS; Superdex200 HR10/30 in 10 mM Tris, 50 mM NaCl, pH 7.5; refractive index and multi-angle light scattering detectors"}, "[8]": {"biological_target": "T1, mouse TrkC LRRIg1 (soluble)", "experiment": "SPR"}, "[9]": {"biological_target": "T6, chicken RPTPσ N73S+S74N (RPTPδ-like) Ig1–3, C-terminal Avitag (chicken, UniProt F1NWE3 29-316, N73S | S74N, biotin on the Avitag (enzymatic))", "T6 construct": "chicken RPTPσ Ig1–3, amino acids 29–316 of NCBI NM_205407.1; not shown: Avitag (BirA recognition site), C-terminal, kept", "T6 sequence (looked up)": "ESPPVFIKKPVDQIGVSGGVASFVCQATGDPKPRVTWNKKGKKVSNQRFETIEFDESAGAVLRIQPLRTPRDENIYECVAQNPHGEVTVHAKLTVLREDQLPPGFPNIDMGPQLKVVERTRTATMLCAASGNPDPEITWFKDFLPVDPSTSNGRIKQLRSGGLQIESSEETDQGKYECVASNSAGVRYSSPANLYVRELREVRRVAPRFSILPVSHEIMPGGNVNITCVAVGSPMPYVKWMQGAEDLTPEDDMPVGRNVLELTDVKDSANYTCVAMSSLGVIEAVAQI", "experiment": "SPR; equilibrium; biotinylated chicken RPTPσ Ig1–3 (wild type or mutants) immobilized on streptavidin-coated CM5 chips, chicken TrkC LRRIg1 as analyte; 10 mM HEPES pH 7.5, 150 mM NaCl, 0.01% Tween 20, 25 °C", "conditions": "both partners purified"}, "[10]": {"biological_target": "T7, chicken RPTPσ Ig1–3, C-terminal Avitag, immobilized (chicken, UniProt F1NWE3 29-316, biotin on the Avitag (enzymatic))", "T7 construct": "chicken RPTPσ Ig1–3, amino acids 29–316 of NCBI NM_205407.1; not shown: Avitag (BirA recognition site), C-terminal, kept", "T7 sequence (looked up)": "T6 sequence (looked up) with S45N, N46S", "experiment": "SPR; equilibrium; biotinylated chicken RPTPσ Ig1–3 (wild type or mutants) immobilized on streptavidin-coated CM5 chips, chicken TrkC LRRIg1 as analyte; 10 mM HEPES pH 7.5, 150 mM NaCl, 0.01% Tween 20, 25 °C", "conditions": "both partners purified"}, "[11]": {"biological_target": "T8, TrkC (species and construct not stated; Supplementary Figs 5a,b and 8i) ( (mouse or chicken constructs …, UniProt Q6VNS1 32-825)", "T8 construct": "TrkC ectodomain construct; they may differ", "experiment": "SPR; equilibrium; RPTPσ and TrkC truncations (Supplementary Fig. 5a,b); species and who was immobilized not given", "conditions": "both partners purified"}}, "note": "Residue numbers refer to the chain shown, from its start. Like-named read-outs stand apart in the source and are kept apart here."}
{"binder": "B1", "values": [{"measurement": "Kd", "setting": "[1]", "result": 551, "unit": "nM"}, {"measurement": "Kd", "setting": "[2]", "result": 580, "unit": "nM"}]}
{"binder": "B2", "values": [{"measurement": "stoichiometry N", "setting": "[3]", "result": 1}]}
{"binder": "B3", "values": [{"measurement": "Kd", "setting": "[4]", "result": "> 22000", "unit": "nM"}]}
{"binder": "B4", "values": [{"measurement": "Kd", "setting": "[5]", "result": 202, "unit": "nM"}, {"measurement": "Kd", "setting": "[6]", "result": 278, "unit": "nM"}, {"measurement": "stoichiometry N", "setting": "[7]", "result": 1}, {"measurement": "Kd", "setting": "[8]", "result": 468, "unit": "nM"}]}
{"binder": "B5", "values": [{"measurement": "Kd", "setting": "[9]", "result": "> 21000", "unit": "nM"}, {"measurement": "Kd", "setting": "[10]", "result": 3500, "unit": "nM"}]}
{"binder": "B6", "values": [{"measurement": "Kd", "setting": "[11]", "result": 2400, "unit": "nM"}]}
